Test results: patent US20250027068

B1: PRT-154 (protein)
chain: MANQEIRYSEVTPYHVTSVWTKGVTPPANFTQGEDVFHAPYVANQGWYDITKTFNGKDDLLCGAATAGNMLHWWFDQNKTQIEAYLKKHPEKQKINFNGEQMFDVKEAIDTKNHQLDSKLFEYFKEKAFPYLSTKHLGVFPDHVIDMFINGYRLSLTNHGPTPVKEGSKDPRGGIFDAVFTRGDQSKLLTSRHDFKEKNLKEISDLIKKELTEGKALGLSHTYANVRINHVINLWGADFDSNGNLKAIYVTDSDSNASIGMKKYFVGVNSAGKVAISAKEIKEDNIGAQVLGLFTLSTGKKSWEKTN
B2: PRT-155 (protein)
chain: MANQEIRYSEVTPYHVTSVWTDGVTPPANFTQGEDVFHAPYVANQGWYDITKTFNGKDDLLCGAATAGNMLHWWFDQNSTQIEAYLKKHPEKQKINFNGEQMFDVKEAIDTKNHQLDSKLFEYFKEKAFPYLSTKHLGVFPDHVIDMFINGYRLSLTNHGPTPVKEGSKDPRGGIFDAVFTRGDQSKLLTSRHDFKEKNLKEISDLIKKELTEGKALGLSHTYANVRINHVINLWGADFDSNGNLKAIYVTDSDSNASIGMKKYFVGVNSAGKVAISAKEIKEDNIGAQVLGLFTLSTGKKSWEKTN
B3: PRT-14 (protein)
chain: MANQEIRYSEVTPYTVTSVWTKGVTPPADFTQGEDVFHAPYIANQGWYDITKTFNGKDDLLCGAATAGNMLHWWFDQNKEQIERYLKKHPEKQKINFNGEQMFDVKEAIDTKDSQTDSELFEYFKEKAFPYLSTKHLGVFPDHVLDMFINGYRLSLTNHGPTPVKEGSKDPRGGIFDAVFTRGDQSKLLTNRHDFKEKTLSEISDLIKKELTEGKALGLSHTYANVRINHVINLWGADFDSEGNLEAIYVTDSDSNASIGMKKYFVGVNSAGKVAISAKEIKEDNIGAQVLGLFTLSTGQDIWNQTN
B4: PRT-166 (protein)
chain: MANQEIRYSEVTPYHVTSVWTKGVTPPANFTQGEDVFHAPYVANQGWYDITKAFDGGDDLLCGAATAGNMLHWWFDQNKDQIKRYLEEHPEKQKINFNGEQMFDVKEAIDTKNSQTNSELFNYFKEKAFPYLSTKHLGVFPDHVIDMFINGYRLSLTNHGPTPVKEGSKDPRGGIFDAVFTRGDQSKLLTSRHDFKEKNLKEISDLIKKELTEGKALGLSHTYANVRINHVINLWGADFDSNGNLKAIYVTDSDSNASIGMKKYFVGVNSAGKVAISAKEIKEDNIGAQVLGLFTLSTGQDSWNQTN
B5: PRT-156 (protein)
chain: MANQEIRYSEVTPYHVTSVWTKGVTPPTDFTQGEDVFHAPYKANQGWYDITKTFNGKDDLLCGAATAGNMLHWWFDQNKDQIKRYLEEHPEKQKINFNGEQMFDVKEAIDTKNHQLDSKLFEYFKEKAFPYLSTKHLGVFPDHVIDMFINGYRLSLTNHGPTPVKEGSKDPRGGIFDAVFTRGDQSKLLTSRHDFKEKNLKEISDLIKKELTEGKALGLSHTYANVRINHVINLWGADFDSNGNLKAIYVTDSDSNASIGMKKYFVGVNSAGKVAISAKEIKEDNIGAQVLGLFTLSTGQDSWNQTN
B6: PRT-157 (protein)
chain: MANQEIRYSEVTPYHVTSVWTKGVTPPEDFTQGEDVFHAPYKANQGWYDITKTFNGKDDLLCGAATAGNMLHWWFDQNKDQIKRYLEEHPEKQKINFNGEQMFDVKEAIDTKNHQLDSKLFEYFKEKAFPYLSTKHLGVFPDHVIDMFINGYRLSLTNHGPTPVKEGSKDPRGGIFDAVFTRGDQSKLLTSRHDFKEKNLKEISDLIKKELTEGKALGLSHTYANVRINHVINLWGADFDSNGNLKAIYVTDSDSNASIGMKKYFVGVNSAGKVAISAKEIKEDNIGAQVLGLFTLSTGQDSWNQTN
B7: PRT-159 (protein)
chain: MANQEIRYSEVTPYHVTSVWTKGVTPPTDFIKGEDVFHAPYKAGQGWYDITKTFNGKDDLLCGAATAGNMLHWWFDQNKDQIKRYLEEHPEKQKINFNGEQMFDVKEAIDTKNHQLDSKLFEYFKEKAFPYLSTKHLGVFPDHVIDMFINGYRLSLTNHGPTPVKEGSKDPRGGIFDAVFTRGDQSKLLTSRHDFKEKNLKEISDLIKKELQEGKALGLSHTYANVRINHVINLWGADFDSNGNLKAIYVTDSDSNASIGMKKYFVGVNSAGKVAISAKEIKEDNIGAQVLGLFTLSTGQDSWNQTN
B8: PRT-165 (protein)
chain: MANQEIRYSEVTPYHVTSVWTKGVTPPANFTQGEDVFHAPYVANQGWYDITKTFNGGDDLLCGAATAGNMLHWWFDQNKDQIKRYLEEHPEKQKINFNGEQMFDVKEAIDTKNSQTNSELFNYFKEKAFPYLSTKHLGVFPDHVIDMFINGYRLSLTNHGPTPVKEGSKDPRGGIFDAVFTRGDQSKLLTSRHDFKEKNLKEISDLIKKELTEGKALGLSHTYANVRINHVINLWGADFDSNGNLKAIYVTDSDSNASIGMKKYFVGVNSAGKVAISAKEIKEDNIGAQVLGLFTLSTGQDSWNQTN
B9: PRT-158 (protein)
chain: MANQEIRYSEVTPYHVTSVWTKGVTPPTDFIKGEDVFHAPYKAHQGWYDITKTFNGKDDLLCGAATAGNMLHWWFDQNKDQIKRYLEEHPEKQKINFNGEQMFDVKEAIDTKNHQLDSKLFEYFKEKAFPYLSTKHLGVFPDHVIDMFINGYRLSLTNHGPTPVKEGSKDPRGGIFDAVFTRGDQSKLLTSRHDFKEKNLKEISDLIKKELQEGKALGLSHTYANVRINHVINLWGADFDSNGNLKAIYVTDSDSNASIGMKKYFVGVNSAGKVAISAKEIKEDNIGAQVLGLFTLSTGQDSWNQTN
B10: PRT-164 (protein)
chain: MANQEIRYSEVTPYHVTSVWTKGVTPPANFTQGEDVFHAPYVANQGWYDITKTFNGKDDLLCGAATAGNMLHWWFDQNKDQIKRYLEEHPEKQKINFNGEQMFDVKEAIDTKNSQENSELFNYFKEKAFPYLSTKHLGVFPDHVIDMFINGYRLSLTNHGPTPVKEGSKDPRGGIFDAVFTRGDQSKLLTSRHDFKEKNLKEISDLIKKELTEGKALGLSHTYANVRINHVINLWGADFDSNGNLKAIYVTDSDSNASIGMKKYFVGVNSAGKVAISAKEIKEDNIGAQVLGLFTLSTGQDSWNQTN
B11: PRT-162 (protein)
chain: MANQEIRYSEVTPYHVTSVWTKGVTPPANFTQGEDVFHAPYVANQGWYDITKTFNGKDDLLCGAATAGNMLHWWFDQNKDQIKRYLEEHPEKQKINFNGEQMFDVKEAIDTKNSQTNSELFNYFKEKAFPYLSTKHLGVFPDHVIDMFINGYRLSLTNHGPTPVKEGSKDPRGGIFDAVFTRGDQSKLLTSRHDFKEKNLKEISDLIKKELTEGKALGLSHTYANVRINHVINLWGADFDSNGNLKAIYVTDSDSNASIGMKKYFVGVNSAGKVAISAKEIKEDNIGAQVLGLFTLSTGQDSWNQTN
B12: PRT-161 (protein)
chain: MANQEIRYSEVTPYHVTIVWTDGVKPPTDFIKGEDVFHAPYKAHQGWYDITKTFNGKDDLLCGAATAGNMLHWWFDQNKDQIKRYLEEHPEKQKINFNGEQMFDVKEAIDTKNHQLDSKLFEYFKEKAFPYLSTKHLGVFPDHVIDMFINGYRLSLTNHGPTPVKEGSKDPRGGIFDAVFTRGDQSKLLTSRHDFKEKNLKEISDLIKKELQEGKALGLSHTYANVRINHVINLWGADFDSNGNLKAIYVTDSDSNASIGMKKYFVGVNSAGKVAISAKEIKEDNIGAQVLGLFTLSTGQDSWNQTN
B13: PRT-163 (protein)
chain: MANQEIRYSEVTPYHVTSVWTKGVTPPANFTQGEDVFHAPYVANQGWYDITKTFNGKDDLLCGAATAGNMLHWWFDQNKDQIKRYLEEHPEKQKINFNGEQMFDVKEAIDTKNDQTNSELFNYFKEKAFPYLSTKHLGVFPDHVIDMFINGYRLSLTNHGPTPVKEGSKDPRGGIFDAVFTRGDQSKLLTSRHDFKEKNLKEISDLIKKELTEGKALGLSHTYANVRINHVINLWGADFDSNGNLKAIYVTDSDSNASIGMKKYFVGVNSAGKVAISAKEIKEDNIGAQVLGLFTLSTGQDSWNQTN
B14: PRT-160 (protein)
chain: MANQEIRYSEVTPYHVTTVWTDGVKPPTDFIKGEDVFHAPYKAHQGWYDITKTFNGKDDLLCGAATAGNMLHWWFDQNKDQIKRYLEEHPEKQKINFNGEQMFDVKEAIDTKNHQLDSKLFEYFKEKAFPYLSTKHLGVFPDHVIDMFINGYRLSLTNHGPTPVKEGSKDPRGGIFDAVFTRGDQSKLLTSRHDFKEKNLKEISDLIKKELQEGKALGLSHTYANVRINHVINLWGADFDSNGNLKAIYVTDSDSNASIGMKKYFVGVNSAGKVAISAKEIKEDNIGAQVLGLFTLSTGQDSWNQTN

Each protein was assayed against pooled human IgG.
Work on B1 yielded an Enzyme Activity Endpoint Assay (purified): Fab'2 of 733 ng/µL, an Enzyme Activity Endpoint Assay (purified): Fc of 191 ng/µL and an Enzyme Activity Endpoint Assay (purified): IgG of 0 ng/µL. For the same protein, the Enzyme Activity Endpoint Assay (purified): scIgG was 0 ng/µL.
Protein B2 has an Enzyme Activity Endpoint Assay (purified): Fab'2 of 751 ng/µL, an Enzyme Activity Endpoint Assay (purified): Fc of 197 ng/µL and an Enzyme Activity Endpoint Assay (purified): IgG of 0 ng/µL. For the same protein, the Enzyme Activity Endpoint Assay (purified): scIgG was 18 ng/µL.
Protein B3 has an Enzyme Activity Endpoint Assay: Fab′2 of 18 ng/µL, an Enzyme Activity Endpoint Assay: Fc of 94 ng/µL and an Enzyme Activity Endpoint Assay: IgG of 13 ng/µL. For the same protein, the Enzyme Activity Endpoint Assay: scIgG was 43 ng/µL.
In the case of B4, the Enzyme Activity Endpoint Assay (purified): Fab'2 is reported as 597 ng/µL, the Enzyme Activity Endpoint Assay (purified): Fc is reported as 161 ng/µL and the Enzyme Activity Endpoint Assay (purified): IgG is reported as 0 ng/µL. It also gave an Enzyme Activity Endpoint Assay (purified): scIgG of 0 ng/µL.
For B5, the Enzyme Activity Endpoint Assay (purified): Fab'2 was 772 ng/µL, the Enzyme Activity Endpoint Assay (purified): Fc was 205 ng/µL and the Enzyme Activity Endpoint Assay (purified): IgG was 0 ng/µL. The Enzyme Activity Endpoint Assay (purified): scIgG was 0 ng/µL.
In the case of B6, the Enzyme Activity Endpoint Assay (purified): Fab'2 is reported as 806 ng/µL, the Enzyme Activity Endpoint Assay (purified): Fc is reported as 198 ng/µL and the Enzyme Activity Endpoint Assay (purified): IgG is reported as 0 ng/µL. It also gave an Enzyme Activity Endpoint Assay (purified): scIgG of 0 ng/µL.
B7 was tested, and the Enzyme Activity Endpoint Assay (purified): Fab'2 was 637 ng/µL, the Enzyme Activity Endpoint Assay (purified): Fc was 184 ng/µL and the Enzyme Activity Endpoint Assay (purified): IgG was 0 ng/µL. The Enzyme Activity Endpoint Assay (purified): scIgG was 0 ng/µL.
With B8 the Enzyme Activity Endpoint Assay (purified): Fab'2 was 783 ng/µL, the Enzyme Activity Endpoint Assay (purified): Fc was 204 ng/µL and the Enzyme Activity Endpoint Assay (purified): IgG was 0 ng/µL. It also gave an Enzyme Activity Endpoint Assay (purified): scIgG of 0 ng/µL.
B9 gave an Enzyme Activity Endpoint Assay (purified): Fab'2 of 637 ng/µL, an Enzyme Activity Endpoint Assay (purified): Fc of 163 ng/µL and an Enzyme Activity Endpoint Assay (purified): IgG of 0 ng/µL. The Enzyme Activity Endpoint Assay (purified): scIgG was 0 ng/µL.
B10 gave an Enzyme Activity Endpoint Assay (purified): Fab'2 of 508 ng/µL, an Enzyme Activity Endpoint Assay (purified): Fc of 203 ng/µL and an Enzyme Activity Endpoint Assay (purified): IgG of 0 ng/µL. It also gave an Enzyme Activity Endpoint Assay (purified): scIgG of 85 ng/µL.
With B11 the Enzyme Activity Endpoint Assay (purified): Fab'2 was 729 ng/µL, the Enzyme Activity Endpoint Assay (purified): Fc was 196 ng/µL and the Enzyme Activity Endpoint Assay (purified): IgG was 0 ng/µL. It also gave an Enzyme Activity Endpoint Assay (purified): scIgG of 0 ng/µL.
With B12 the Enzyme Activity Endpoint Assay (purified): Fab'2 was 669 ng/µL, the Enzyme Activity Endpoint Assay (purified): Fc was 172 ng/µL and the Enzyme Activity Endpoint Assay (purified): IgG was 0 ng/µL. The Enzyme Activity Endpoint Assay (purified): scIgG was 0 ng/µL.
B13 gave an Enzyme Activity Endpoint Assay (purified): Fab'2 of 706 ng/µL, an Enzyme Activity Endpoint Assay (purified): Fc of 184 ng/µL and an Enzyme Activity Endpoint Assay (purified): IgG of 29 ng/µL. For the same protein, the Enzyme Activity Endpoint Assay (purified): scIgG was 0 ng/µL.
Protein B14 has an Enzyme Activity Endpoint Assay (purified): Fab'2 of 642 ng/µL, an Enzyme Activity Endpoint Assay (purified): Fc of 168 ng/µL and an Enzyme Activity Endpoint Assay (purified): IgG of 0 ng/µL. The Enzyme Activity Endpoint Assay (purified): scIgG was 0 ng/µL.
